Measured values reported in the DeepSol protein solubility set.

Assay: soluble on expression in E. coli; label from the status in PepcDB or PDB records

| Sequence | soluble on expression in E. coli |
| --- | --- |
| KSIVKIRNRMAAETQTLNFGPEWLRALSSGGSITSPPLSPALPKYKLADYRYGREEMLALFLKDNKIPSDLLDKEFLPILQEEPLPPLALVPFTEEEQRNFSMSVNSAAVLRLTGRGGGGTVVGAPRGRSSSRGRGRGRGECGFYQRSFDEVEGVFGRGGGREMHRSQSWEERGDRRFEKPGRKDVGKKNGYYCMYSPVLLLGQPLCQGRPNFEEGGPTSVGRKHEFIRSESENWRIFREEQNGEDEDGGWRLAGSRRDGERWRPHSPDGPRSAGWREHMERRRRFEFDFRDRDDERGYRRVRSGSGSIDDDRDSLPEWCLEDAEEEMGTFDSSGAFLSLKKVQKEPIPEEQEMDFRPVDEGEECSDSEGSHNEEAKEPDKTNKKEGEKTDRVGVASEETPQTSSSSARPGTPSDHQSQEASQFERKDEPKTEQTEKAEEETRMENSLPAKVPSRGDEMVADVQQPLSQIPSDTASPLLILPPPVPNPSPTLRPVETPVVGAPGMGSVSTEPDDEEGLKHLEQQAEKMVAYLQDSALDDERLASKLQEHRAKGVSIPLMHEAMQKWYYKDPQGEIQGPFNNQEMAEWFQAGYFTMSLLVKRACDESFQPLGDIMKMWGRVPFSPGPAPPPHMGELDQERLTRQQELTALYQMQHLQYQQFLIQQQYAQVLAQQQKAALSSQQQQQLALLLQQFQTLKMRISDQNIIPSVTRSVSVPDTGSIWELQPTASQPTVWEGGSVWDLPLDTTTPGPALEQLQQLEKAKAAKLEQERREAEMRAKREEEERKRQEELRRQQEEILRRQQEEERKRREEEELARRKQEEALRRQREQEIALRRQREEEERQQQEEALRRLEERRREEEERRKQEELLRKQEEEAAKWAREEEEAQRRLEENRLRMEEEAARLRHEEEERKRKELEVQRQKELMRQRQQQQEALRRLQQQQQQQQLAQMKLPSSSTWGQQSNTTACQSQATLSLAEIQKLEEERERQLREEQRRQQRELMKALQQQQQQQQQKLSGWGNVSKPSGTTKSLLEIQQEEARQMQKQQQQQQQHQQPNRARNNTHSNLHTSIGNSVWGSINTGPPNQWASDLVSSIWSNADTKNSNMGFWDDAVKEVGPRNSTNKNKNNASLSKSVGVSNRQNKKVEEEEKLLKLFQGVNKAQDGFTQWCEQMLHALNTANNLDVPTFVSFLKEVESPYEVHDYIRAYLGDTSEAKEFAKQFLERRAKQKANQQRQQQQLPQQQQQQPPQQPPQQPQQQDSVWGMNHSTLHSVFQTNQSNNQQSNFEAVQSGKKKKKQKMVRADPSLLGFSVNASSERLNMGEIETLDDY | soluble |
| KTKLNITMEEDTEVLDEVVVVGYGAQKKESVVGAISQVSSKELLKSPAANISQAIAGKISGVITSQTSGAPGADDMKIYIRGRASFAGDNQPLILVDGVEREFSQIAPDDIESISTLKDASATAVYGVRGANGVMLITTKRGKEQK | not soluble |
| KTMLKIKMAEDAEMIDEVVVTALGIKREEKALGYAVQKVGGSKLSTVKPVNIATSLTGKVAGLNVTNSTEFNTAPTLKLRGETPLLVVDGVPYSNISLNDIAADDIESVDVLKGATASALYGARGGSGAIMVTTKKGSQEG | not soluble |
| KVITRGEATRLINKEDAVVVDLRQRDDFRKGHIAGAINLLPSDIKANNVGELEKHKSQPIIVVDGSGMQAQEPASALNKAGFEKVFVLKEGIAGWSGENLPLVRG | soluble |
| KYRHEYYQKPEEVVVTVFAKGIPKQNVNIDFGEQILSVVIEVPGEDAYYLQPRLFGKIIPDKCKYEVLSTKIEICLAKADIITWASLEHG | soluble |
| LALQAKQYGDFDRYVLALSWQTGFCQSQHDRNRNERDECRLQTETTNKADFLTVHGLWPGLPKSVAARGVDERRWMRFGCATRPIPNLPEARASRMCSSPETGLSLETAAKLSEVMPGAGGRSCLERYEYAKHGACFGFDPDAYFGTMVRLNQEIKESEAGKFLADNYGKTVSRRDFDAAFAKSWGKENVKAVKLTCQGNPAYLTEIQISIKADAINAPLSANSFLPQPHPGNCGKTFVIDKAGY | soluble |
| LAVLMVLAVNFGTVTTFAAMSDEAESISVNKPVTDNLSSVNDVKYYEVELPAPGKVNLSFSHANLERTYVYWKVTMFDSVENEVLYFESTGTNTDGKSMSVYLDKGTYYVRVKSEGYWYSTTDYTLCVNYTENKGEYEIEPNYSKELATEISVNKPVIGNHRVKGDTDFYKFTISEPGKVDLSFNHANLERTYVYWKVTMFDSVENIVLYFESTGTNTTGKSMNAYLSEGTYYIRVTTDDYWHSTADYTLCVNYTENQGEYEIEPNNSQDNATLIEVDEPVTGNLRTSSDVDYYRFVMPDSGKVYLGFNHPNLERTYVYWKVSLYDANGNRLYQLNSRGTDTVGKSDEIKIGSGTYYVKVEYEGYWHSSADYSLTVNTVGGIPKVKVFLNGKRIRFDQPPIIQNGRTLVPLRAIFEAMNATVSWDDKTKTVTAKKGDTTIVMTIGNKTMKKNGVAIELDVPPQIVNGRTLVPARAVAESFGAKVDWDGSTRTVTITEGN | not soluble |
| LEGTAGTITSNEWSSPTSPEGSTASGGSQALDKPIDNDAEGVWSPDIEQSFQEALAIYPPCGRRKIILSDEGKMYGRNELIARYIKLRTGKTRTRKQVSSHIQVLARRKAREIQAKLKDQAAKDKALQSMAAMSSAQIISATAFHSSMALARGPGRPAVSGFWQGALPGQAGTSHDVKPFSQQTYAVQPPLPLPGFESPAGPAPSPSAPPAPPWQGRSVASSKLWMLEFSAFLEQQQDPDTYNKHLFVHIGQSSPSYSDPYLEAVDIRQIYDKFPEKKGGLKDLFERGPSNAFFLVKFWADLNTNIEDEGSSFYGVSSQYESPENMIITCSTKVCSFGKQVVEKVETEYARYENGHYSYRIHRSPLCEYMINFIHKLKHLPEKYMMNSVLENFTILQVVTNRDTQETLLCIAYVFEVSASEHGAQHHIYRLVKE | soluble |
| LEMKGKRMSVTAVMRELEKEENLYRRSGGGITLSGGEPLAQPEFARELLKACKAKGWHTAIETSGFTTKAVIDEVFPYVDLALTDIKAIDPEIHERNTGVNNRVILENLLRISFLTKVVVRIPVIPGVNDNSQEIHNIAEFARLMQNVDTIHLLPYHSFGENKYNLLGRQYPMGDTKSIEESQMAELKAMVESLGFNCHIGG | not soluble |
| LEYLKNNCKVIIVDMHAEATSEKCALAWYLDGRVSCVLGTHTHVQTADERILPFGTAFISDVGMTGPYDGIIGVNREIVIQKFLTHMPVRFEVATGRVQFNAVYLEIDEKTGKTTGIERIYEILEV | not soluble |
| LFNYKPGTSVFSIATAGCNFKCKHCQNWEISQSLPEEVPFSELTPEDVVELAKNYLCEGIAYTYTEPTIFYEFMQETAKLAKKHDLFNVMVTNGYIEKEPLKKLEIDAMNIDIKGNSEFYKKICLAELEPVLETCRLAKKLGIHIEITNLVVPTYNDNPKYIESIINFVKDELGVDTPLHFTAFYPHYKLTSVPSTRMETIKKARDMALNAGLHYVYAGNV | not soluble |
| LGSLLEVAIPKPGNVSRYKDFEDLTFYHFLFGNTALIGPYFEATERGILLKEGKINESEVGIGELIRMAVAATKKYQDANPNFGIIVLSIPLIVSLSSGASIEDAGKMATRLISKSTPLDTVELYKAIRIANPKGIPRGVKYDVYSDTSFEDLVRDGINLYKLAEISCERELVFCEWLNNYDLTYETLKLLENNLEKEDLEGKVRKTFVVLLSKYEDTLIIRKAGIQEAKKVKEMATQLLKNKITEEEFERFMYEKRDLRNPGSLADIMATAL | not soluble |
| LKRLFWPVLLVVLGFGTYEGAQRLLPYADRPIARINVQGDLSYISQQAVQQRIAPYVASSFFKIDLAAMRTELEQMPWIAHAEVRRVWPDQVVIRLEEQLPVARWGDEALLNNQGQAFTPRELSNYEHLPQLFGPQRAQQQVMQQYQVLSQMLRPMGFSIVRLELRERGSWFLTTGAGSAGPGIELLLGRDHLVEKMRRFIAIYDKTLKEQITNIARVDLRYSNGLAVGWREQAAATTDKPAVAKN | not soluble |
| LKSESAEKTREVLWQQYYASNPPDHAVLEVLATPVREALLARFGQHQGSVVPAIDLPELRSVLQQFDSFGKRWEAILLQVLEGIKPNESQVGLPYLSELINKELMILLPSNS | soluble |
| LLLLLPQGGDVRGGPGVREPGQAPQDRGGRDRLLGRGERESPGSDASGGERYSSGGGDGGDGDGGSGGGGDGEEGEGGEEGDEGDGDEGGSGGDESGSGGGPRSMPLSTEGGGSHHKVSVSPVVHVRGLCESVVEADLVEALEKFGTICYVMMMPFKRQALVEFENIDSAKECVTFAADVPVYIAGQQAFFNYSTSKRITRPGNTDDPSGGNKVLLLSIQNPLYPITVDVLYTVCNPVGKVQRIVIFKRNGIQAMVEFESVLCAQKAKAALNGADIYAGCCTLKIEYARPTRLNVIRNDNDSWDYTKPYLGRRDRGKGRQRQAILGDHPSSFRHDGYGSHGPLLPLPSRYRMGSRDTPELVAYPLPQASSSYMHGGSPSGSVVMVSGLHQLKMNCSRVFNLFCLYGNIEKVKFMKTIPGTALVEMGDEYAVERAVTHLNNVKLFGKRLNVCVSKQHSVVPSQIFELEDGTSSYKDFAMSKNNRFTSAGQASKNIIQPPSCVLHYYNVPLCVTEETFTKLCNDHEVLPFIKYKVFDAKASAKTLSGLLEWKCKTDAVEALTALNHYQIRVPNGSNPYTLKLCFSTSSHL | soluble |
| LLSKKEIITVNVAPGHHFNDVITVKGMADEEIDKTTCGDLKFHLTEKQENLEQKQIFLKNFDDGAGEDLYTSITISLSEALTGFEKFLTKTFDDRLLTLSVKPGRVVRPGDTIKIANEGWPILDNPHGRCGDLYVFVHIEFPPDNWFNEKSELLAIKTNLPSSSSCASHATVNTEDDSNLTNNETISNFRIIHTDDLPEGIRPFKPEAQDSAHQKARSSYCCIQ | not soluble |
| LNDPLDSGRFSRKQLDKKYKHAGDFGISDTKKNRETLTKFRDAIEEHLSDKDTVEKGTYRREKGSKVYFNPNTMNVVIIKSNGEFLSGWKINPDADNGRIYLETGEL | soluble |
| LPAFFKTFDRQEDFMVDVFRLNIDALKENYLPLARFFENLNENTGNESSVILETSKSGMPNFRVKKGEHTFFVHSPYDPRTEAIRWAEKIDLKGFDTIAVLGIGCGYHIEELEKKYPDKNKIVIEPDRNVFLKLLNTRDITHLISSKNILFIISDNTEEIAKVFLLLREEGEIDSVEFNELLSYRKVYEDWWLELKKEYIKFARLHQINTNTSVFFAEAWLTNLFEGMWQLTKSVHIKEYKSAFANIPAIVVSAGPALNKNVHLLKELYNKAVIISAGSALNILESRGITPHIMVGVDGGEAESRIFNNVKSNEIYFAYSLSVHYDGLKNYSGPKIYFKTNVLGYGDWIDEKLGIEGAENLRSGSSVSNLSLDIARYMGCNPIIVIGQNLSFPNLESYADGAVLKQEQDRHIQQCVENSNKYYVLEKDIDGNDVYTTHSMLSIRFYFEEYIKNHPDRLYLNGSEEGLPIKGMKNMPLKEIVEKYCTKEYDIKGILDKKFKEEFEAENVKAKEIKIRRILEDIHKESTEIRQKAIKRIDLILDILSNIRGSHNDKWEEIDRLTDEIESSDLYKYFVEPLSKYFIQAVKNERERKMESIPDIQERLKYLYEGLLIQYVEVKDKIVLIDDLSQKIIENIDKKEATKCLSMV | soluble |
| LPSPSRQASTRRMSIGESIDGKINDWEEPRLDIEGFVVDYFTHRIRQNGMEWFGAPGLPSGVQPEHEMMRVMGTIFEKKHAENFETFSEQLLAVPRISFSLYQDVVRTVGNAQTDQSPMSYGRLIGLISFGGFVAAKMMESVELQGQVRNLFVYTSLFIKTRIRNNWKEHNRSWDDFMTLGKQMKEDYERAEAEKVGRRKQNRR | soluble |
| LPTGIIIAATPLGNIGDASPRLVHALANATVVAAEDTRRTASLAAALGVEIKGQLVSNFDHNEQARVGKLIEAARTGTVLVVSDAGMPVVSDPGFALIDAAHDANIPVTCFPGPS | not soluble |
